Assay results from patent EP4814010A1 (Shanghai Huaota Biopharmaceutical Co., Ltd., dated 2026).

How the values were obtained:
[1] = target: T1, Trypsin inhibitor type 1-S from Glycine max (Glycine max, UniProt P01070 25-205); test: SPR (Biacore 8K), trypsin inhibitor amine-coupled on CM5, antibody as analyte
T1 sequence (looked up): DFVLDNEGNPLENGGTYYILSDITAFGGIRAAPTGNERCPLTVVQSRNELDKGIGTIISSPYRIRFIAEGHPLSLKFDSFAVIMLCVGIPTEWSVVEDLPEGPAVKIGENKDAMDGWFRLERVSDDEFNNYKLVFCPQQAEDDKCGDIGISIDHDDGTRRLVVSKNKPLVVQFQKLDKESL

[2] = target: T2, Mouse IL-11, No Tag (Sino Biological, 50117-MNCE) (mouse, UniProt P47873 22-199); test: SPR (Biacore T200), antibody captured on Protein A chip, IL-11 as analyte, 1:1 model
T2 construct: Bought protein
T2 sequence (looked up): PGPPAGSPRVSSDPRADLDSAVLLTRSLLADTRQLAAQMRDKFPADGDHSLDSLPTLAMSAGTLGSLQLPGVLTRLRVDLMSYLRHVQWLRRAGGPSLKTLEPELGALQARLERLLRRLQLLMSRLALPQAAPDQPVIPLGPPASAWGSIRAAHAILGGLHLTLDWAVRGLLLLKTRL

[3] = target: T3, Human IL-11, No Tag (Sino Biological, 12225-HNCE) (human, UniProt P20809 22-199); test: as above
T3 construct: Bought protein; also called IL-11 Protein, Human, Recombinant
T3 sequence (looked up): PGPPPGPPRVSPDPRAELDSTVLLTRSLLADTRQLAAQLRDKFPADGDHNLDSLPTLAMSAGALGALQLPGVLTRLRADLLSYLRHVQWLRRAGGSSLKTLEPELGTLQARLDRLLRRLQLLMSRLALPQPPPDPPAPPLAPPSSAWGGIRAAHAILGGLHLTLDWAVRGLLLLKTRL

[4] = target: T4, Cynomolgus IL-11, No Tag (Sino Biological Inc., 90925-CNCE) (cynomolgus, UniProt P20808 22-199); test: SPR (Biacore 8K), cynomolgus IL-11 amine-coupled on CM5, single-cycle kinetics, 1:1 model
T4 construct: Bought protein; also called monkey IL-11
T4 sequence (looked up): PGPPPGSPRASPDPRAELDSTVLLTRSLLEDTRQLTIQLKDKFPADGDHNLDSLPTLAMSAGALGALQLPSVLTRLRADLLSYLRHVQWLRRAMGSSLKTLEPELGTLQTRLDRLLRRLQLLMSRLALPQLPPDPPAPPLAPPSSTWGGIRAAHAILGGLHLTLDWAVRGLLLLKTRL

[5] = target: T5, Recombinant Rat Interleukin-11(IL-11), hFc Tag (CusaBio, CSB-MP859561RAd9) (rat, UniProt Q99MF5 22-199); test: BLI (Octet RH96), biotinylated sample on SA sensor, rat IL-11 as analyte, 1:1 global fit
T5 construct: Bought fusion protein; also called Rat IL-11; not shown: hFc tag
T5 sequence (looked up): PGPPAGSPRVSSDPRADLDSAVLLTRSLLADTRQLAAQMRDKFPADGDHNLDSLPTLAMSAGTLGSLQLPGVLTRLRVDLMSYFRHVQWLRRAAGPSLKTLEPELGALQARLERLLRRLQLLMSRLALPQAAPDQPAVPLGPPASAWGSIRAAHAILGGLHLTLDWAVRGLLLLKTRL

binding result [1]: no binding
Kd [2]: 2.2 nM
koff [2]: 0.00107 s⁻¹
kon [2]: 487000 M⁻¹ s⁻¹
Kd [3]: 1.93 nM
koff [3]: 0.00133 s⁻¹
kon [3]: 689000 M⁻¹ s⁻¹
Kd [4]: 4.56 nM
koff [4]: 0.00221 s⁻¹
kon [4]: 485000 M⁻¹ s⁻¹
Kd [5]: 1.17 nM
koff [5]: 5.57e-05 s⁻¹
kon [5]: 47500 M⁻¹ s⁻¹
B1: anti-IL-11 monoclonal heavy chain antibody 700068 (antibody, V domains shown)
VH: QVQLVESGGGLVQPGGSLRLSCAASGSIASIYTMAWYRQAPGKQRELVALSTNRGATDYADFVKGRFTISRDNAENTMYLQMNSLKPEDTAVYYCNGVASSWSTGFVASWGQGTQVTVSS
notes: also called 700068 heavy chain antibody
